# Measurements from FireProtDB (doi:10.1021/bi991422s).
# B1: Guanyl-specific ribonuclease T1, P00651 (parent)
# chain: MMYSKLLTLTTLLLPTALALPSLVERACDYTCGSNCYSSSDVSTAQAAGYQLHEDGETVGSNSYPHKYNNYEGFDFSVSSPYYEWPILSSGDVYSGGSPGADRVVFNENNQLAGVITHTGASGNNFVECT
# Variants of: B1
# Conditions: Aspergillus oryzae (strain ATCC 42149 / RIB 40); pH 7; 15 °C; Thermal; DSC; MOPS 30 mM; reversible: yes; structure 1RN1; whole UniProt chain shown
Variant,ddG of mutation (higher = less stable),heat capacity change of unfolding
MMYSKLLTLTTLLLPTALALPSLVERACDYTCGSNCYSSSDVSTAQAAGYQLHEDGETVGSNSYPHKYNNYEGFDFSVSSPYYEWPILSSGDVYSGGSPGASRVVFNENNQLAGVITHTGASGNNFVECT [D102S],3.1 kcal/mol,1.39 kcal/mol/K
MMYSKLLTLTTLLLPTALALPSLVERACDYTCGSNCYSSSDVSTAQAAGYQLHEDGETVGSNSYPHKYNNYEGFDFSVSSPYYEWPILSSGDVYSGGSPGAARVVFNENNQLAGVITHTGASGNNFVECT [D102A],3.8 kcal/mol,1.39 kcal/mol/K

# Same assay, conditions: Aspergillus oryzae (strain ATCC 42149 / RIB 40); pH 7; Thermal; DSC; MOPS 30 mM; reversible: yes; structure 1RN1; whole UniProt chain shown
Variant,Tm,"change of melting temperature, mutant - wild type (higher = more stable)",unfolding enthalpy (calorimetric)
MMYSKLLTLTTLLLPTALALPSLVERACDYTCGSNCYSSSDVSTAQAAGYQLHEDGETVGSNSYPHKYNNYEGFDFSVSSPYYEWPILSSGDVYSGGSPGASRVVFNENNQLAGVITHTGASGNNFVECT [D102S],37.2 °C,-13.6 °C,77.6 kcal/mol
MMYSKLLTLTTLLLPTALALPSLVERACDYTCGSNCYSSSDVSTAQAAGYQLHEDGETVGSNSYPHKYNNYEGFDFSVSSPYYEWPILSSGDVYSGGSPGANRVVFNENNQLAGVITHTGASGNNFVECT [D102N],37 °C,-13.8 °C,76 kcal/mol
MMYSKLLTLTTLLLPTALALPSLVERACDYTCGSNCYSSSDVSTAQAAGYQLHEDGETVGSNSYPHKYNNYEGFDFSVSSPYYEWPILSSGDVYSGGSPGAARVVFNENNQLAGVITHTGASGNNFVECT [D102A],35.6 °C,-15.2 °C,71.1 kcal/mol

# Same assay, conditions: Aspergillus oryzae (strain ATCC 42149 / RIB 40); pH 7; 5 °C; Urea; DSC; MOPS 30 mM; reversible: yes; structure 1RN1; whole UniProt chain shown
Variant,ddG of mutation (higher = less stable),denaturant m value,denaturant midpoint (higher = more stable),unfolding free energy
MMYSKLLTLTTLLLPTALALPSLVERACDYTCGSNCYSSSDVSTAQAAGYQLHEDGETVGSNSYPHKYNNYEGFDFSVSSPYYEWPILSSGDVYSGGSPGANRVVFNENNQLAGVITHTGASGNNFVECT [D102N],2.77 kcal/mol,1.53 kcal/mol/M,3.63 M,5.55 kcal/mol

# Same assay, conditions: Aspergillus oryzae (strain ATCC 42149 / RIB 40); pH 7; 10 °C; Urea; DSC; MOPS 30 mM; reversible: yes; structure 1RN1; whole UniProt chain shown
Variant,ddG of mutation (higher = less stable),denaturant m value,denaturant midpoint (higher = more stable),unfolding free energy
MMYSKLLTLTTLLLPTALALPSLVERACDYTCGSNCYSSSDVSTAQAAGYQLHEDGETVGSNSYPHKYNNYEGFDFSVSSPYYEWPILSSGDVYSGGSPGANRVVFNENNQLAGVITHTGASGNNFVECT [D102N],2.87 kcal/mol,1.52 kcal/mol/M,3.3 M,5 kcal/mol

# Same assay, conditions: Aspergillus oryzae (strain ATCC 42149 / RIB 40); pH 7; 15 °C; Urea; DSC; MOPS 30 mM; reversible: yes; structure 1RN1; whole UniProt chain shown
Variant,ddG of mutation (higher = less stable),denaturant m value,denaturant midpoint (higher = more stable),unfolding free energy
MMYSKLLTLTTLLLPTALALPSLVERACDYTCGSNCYSSSDVSTAQAAGYQLHEDGETVGSNSYPHKYNNYEGFDFSVSSPYYEWPILSSGDVYSGGSPGANRVVFNENNQLAGVITHTGASGNNFVECT [D102N],3.09 kcal/mol,1.41 kcal/mol/M,3.01 M,4.25 kcal/mol
MMYSKLLTLTTLLLPTALALPSLVERACDYTCGSNCYSSSDVSTAQAAGYQLHEDGETVGSNSYPHKYNNYEGFDFSVSSPYYEWPILSSGDVYSGGSPGAARVVFNENNQLAGVITHTGASGNNFVECT [D102A],3.7 kcal/mol,1.42 kcal/mol/M,2.57 M,–

# Same assay, conditions: Aspergillus oryzae (strain ATCC 42149 / RIB 40); pH 7; 20 °C; Urea; DSC; MOPS 30 mM; reversible: yes; structure 1RN1; whole UniProt chain shown
Variant,ddG of mutation (higher = less stable),denaturant m value,denaturant midpoint (higher = more stable),unfolding free energy
MMYSKLLTLTTLLLPTALALPSLVERACDYTCGSNCYSSSDVSTAQAAGYQLHEDGETVGSNSYPHKYNNYEGFDFSVSSPYYEWPILSSGDVYSGGSPGANRVVFNENNQLAGVITHTGASGNNFVECT [D102N],3.19 kcal/mol,1.48 kcal/mol/M,2.39 M,3.53 kcal/mol

# Same assay, conditions: Aspergillus oryzae (strain ATCC 42149 / RIB 40); pH 7; 25 °C; Urea; DSC; MOPS 30 mM; reversible: yes; structure 1RN1; whole UniProt chain shown
Variant,ddG of mutation (higher = less stable),denaturant m value,denaturant midpoint (higher = more stable),unfolding free energy
MMYSKLLTLTTLLLPTALALPSLVERACDYTCGSNCYSSSDVSTAQAAGYQLHEDGETVGSNSYPHKYNNYEGFDFSVSSPYYEWPILSSGDVYSGGSPGANRVVFNENNQLAGVITHTGASGNNFVECT [D102N],3.51 kcal/mol,1.44 kcal/mol/M,1.8 M,2.58 kcal/mol
